According to article PMC2690590, “Functional recombinant MHC class II molecules and high-throughput peptide-binding assays” (Immunome Research, 2009):

Experiments:
[1] = molecular target: DRB1*0813: DRA*0101/DRB1*0813 (human); assay: AlphaScreen or HTRF; direct LOCI: α and biotinylated β chains refolded with peptide titration, 48 h at 18°C; streptavidin donor beads and anti-MHC-II antibody acceptor beads; half saturation (EC50) fitted to Y = Bmax*X/(KD+X) and taken as approximate KD; pH as optimised for each MHC (DR2a at pH 6)
[2] = molecular target: DRB3*0301: DRA*0101/DRB3*0301 (human); assay: as above
[3] = molecular target: DR3: DRA*0101/DRB1*0301 (human); assay: as above
[4] = molecular target: DR2a (DRA*0101/DRB5*0101), biotinylated, direct LOCI assay at pH 6 (human); assay: as above
[5] = molecular target: I-E^d (mouse MHC class II) (mouse) (UniProt P01904); assay: as above
[6] = molecular target: DR2a (DRA*0101/DRB5*0101) with non-biotinylated β chain, competitive LOCI assay (human); assay: AlphaScreen or HTRF
[7] = molecular target: DR1GrpE: DR1 α chain 1–181 and β chain 1–190 fused C-terminally to GrpE, not biotinylated (human); assay: AlphaScreen or HTRF
[8] = molecular target: DP401: DPA1*0103/DPB1*0401 (human); assay: AlphaScreen or HTRF; direct LOCI: α and biotinylated β chains refolded with peptide titration, 48 h at 18°C; streptavidin donor beads and anti-MHC-II antibody acceptor beads; half saturation (EC50) fitted to Y = Bmax*X/(KD+X) and taken as approximate KD; pH as optimised for each MHC (DR2a at pH 6)
[9] = molecular target: DR4 (DRA*0101/DRB1*0401), biotinylated, LOCI assay (human); assay: as above

## IQMLKNGKKIPKVEMS [Murine β2m peptide …]
[1]
  Kd: 73 nM
[2]
  Kd: 70 nM
[3]
  Kd: 21 nM
[4]
  Kd: 6 nM
[5]
  Kd: 117 nM
[6]
  IC50: 3 nM
[7]
  IC50: 1230 nM

## FLYGALLLA [MBP peptide …]
[8]
  Kd: 34 nM
[7]
  IC50: 3920 nM

## YLFFYRKSV [TERT572Y peptide …]
[1]
  Kd: 95 nM
[9]
  Kd: 1590 nM
[4]
  Kd: 2650 nM
[5]
  Kd: 322 nM
[7]
  IC50: 4290 nM
